Test results taken from the supplement of paper PMC12636428.

Tested on: Saccharomyces cerevisiae
Test: transcriptional activation domain activity (GFP:mCherry ratio, weighted mean of sorted bins, harmonized to initial dataset scale) (arbitrary fluorescence ratio units); higher = stronger transcriptional activation
Details: beta-estradiol 1 µM; induction time 4 h
Description: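 53-aa protein tiles (fungal proteins plus yeast TF control tiles) fused C-terminally to a DBD-estrogen-binding domain-mCherry synthetic TF, integrated in S. cerevisiae (URA3 locus) with a GFP reporter. Cells were induced with 1 uM beta-estradiol for 4 h at 30 C, FACS-sorted into 8 bins by GFP:mCherry ratio and barcodes sequenced. Activity is the read-weighted mean bin fluorescence (GFP:mCherry), averaged over barcodes (median 12); tiles under 50 reads were discarded. New active-learning values were harmonized by linear fit onto the scale of the initial (Hummel et al.) dataset. The assay saturates at low and high signal.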

Sequence	transcriptional activation domain activity
YLVHAGVTQDFSLIGRKGVYSLGELEEIRHWVHQALLHCRLLLVCRKALQLVY	71800
LRCVGFILYLLLLIGKIMAFKEIDLLQEHQNFWAKVIYNARGSNRSWDWLSMI	59600
SVCHRAGEGDEEVEDEEEGEESDEEEEDGDDEKTADGGRAASARKGRDAGAGA	13000
AAAKAKDNIKEEDEADELAPVKKTAKKRGPKAQDVDGEGAPKKKPRGRPAKKA	17000
MWGILYSLQYHQNFPFVACFLSDLFEKIIHHHFFYFSLSSFSLFLIFHFWFFF	52000
MLIQSQPQPPPTKHTPLYFIPHFILLLLLALSPSLTLLTLSFFYLFLFCYLLV	20900
DQDAVMEDAPEANAETESQNSRRRRSRGKGRKSGASMAENVKVEQQAEAGSEN	29300
YHALKVYRGLGLLLVNGVTGICLSICVIVVACFGHFHFSPYWVLQWAVMSRIV	63500
NWYWLASTMYFLYGESVIYYFKHIVLVDKVLLPLATHHRFISFVLYVIGFVFF	74800
KDLNVVEGWEHQGVLRAAANTVKSVRMKESSTGGSQEKVYLKLVESTGHTLQG	21200
SAAAAAGTGAAAAATAGGKTGETQAAGAKKLKLSEEGKGKEKAAAAAAAEDQK	22100
MRTLHGLVYFFPFILYHRLVFLWLRVLALSRYVFLFSVCFPWSVLVTFVIFLY	80100
LQKYTQLSLLAKPLINLSNHSIQYQTLQSWYFKTLQSLEANRFRNFMLCHRIL	62300
LLRALSDLRRWRRKYTMLLELPDPFKSQRQHAHEYQLAIPLVEEAVLSFFLFL	57600
APPPAAAPSQPASQPAPAEKHEEPAPQPSPEPQPEPQAQIEESKQEPAPEPQA	20300
KVKKEKKEKKHRRHHHRHRDGSDDERSHKRRRRDDDKRGHRSSRSEHRRRSDS	29800
KKRNAKRPKVESEGEDELADAKKEADDDEDESPKKVSKASSSPEAKVKQSSVS	26200
SASSRESSASASHSASKSESSAAASRTSSAPATQSTGAAVANRAGVVGAVAGG	57700
MNQSPDDTGGEDQTTAPSWRACDNCRARKIKCDKRSPCSNCRVSNAICRTAKK	30600
IMGNLVVLLWHTKVDNIESYLADLSRCIEDFLNVTAQCAPSILILKPKFHFLL	56300
YFVVRGFLFSSAVGCLGLRLGLGLFKRVIYWDQKLLLFLFLFPFFFPPLFSTR	60900
GGVNWESTRDREAVVIRILSPIVEADGSVYICIWIHPVGIIIVHLIVELKLVH	42300
DLQTYVLCLLLLYIARDFVDCLWNLFSTIAILCLVTWVTPMFLIAVFPIGLVY	53700
FPRLVGCIAASLEGLPSTRNGRTAYCVLRVVASYFLCLIRNLMFSDLPVVRCR	68700
IYGSTAKPFPYTEGYHFLLKFVTEKFEKAEVLRIVRALGLFRPSLIALQMPLT	42800
QFALLLGSFLCVAISCFGHLALLFLWLIAPFYFLVFLFWQSFNLFLFVSVCCG	44700
TAATVPSATRAVVSATCRATALRVRSATTAAVTTTSPATARLPARPAPATTAS	34000

Sequence	transcriptional activation domain activity
YEIKRRLQVCRAVLDEHINPYEFKHHTVYREALLKLMYFHCVISLRLVLSWTD	65300
PSSLVAQGQCAVAGDDVLEALAIRGIDFKLYAGILLLIALVYRLLLYIVLVFK	66100
VCLNLLGGVVVCYCPGLLVIAAIEAPIRFKHIFTCSIHIHSLYLRLLFCALHA	69200
DSKLRATALQVRRGGNCPNTVEVLQQLLLSGGGLDTSSSQTQQVSAADAAAVT	33300
QCGLICTLYFANRYGIILGSLPFALQPFIHWTSKGWCLIFRIYLLIYASFVLL	43200
SSGGGSTSESESESESEIEEDESKGEREGEGEKEKKKKKKKKGEEKAQHARRD	31700
MLPRQRHSFWSVVTYLIMYYIIMYAFLYGIKYTHWIYFLSNHLVMWLLLLHFL	41100
LLAWGYVLFNPFAIYSLPYTVLFAFLSLSYLVLTFVLTLPSSLPFYHSKYWFQ	66900
IRGLLILRYQRGYKDLNHCEPQVIFYDRLCGFLVLGWFLHYFPFFLMSRQLFL	88200
LRLVIENIQKYGNLVCLTCHDFRRKDLLLGVGLYFLIPCFLWVALSIELVAAR	63600
TLFTGMHKNIIRLLPYRVARILYILLRVVRPVELMPILKFWIPVGNNKANAAV	40700
AKAEAKTTKTAKKPTLEKKATTSKATTAKKPAAKPATKAKETKAAKEPKAKAA	40800
SDDETSRSHKKSSRRDTSQDDAERGRHHHKSSRHKGERDRHHKIRSRSRSPAR	13900
GELRLPELQAIGISGGMSLLQDAVFMDGRPEASPLFKIIHLLKRASHWKLGRS	46300
RRRWINSTVHNLCELIILPELFGFCCFSMRFFVFLDLLGTLILPATVVYLVYL	51600
MSEPPRKRAKLACVTCNARRVKCDVTERRPCGNCIAGNVECETRESKRGKHPR	32700
GILRYCKIWLAWVQIHFGVHFFVLTIWYRMWNLHRLVVQQKLLSGWSYYLPII	36800
MTSWPLLPPYSIHAMIKMIAFSSLFCSFFSLHLFFYYYLPLYIAVFIFFIVTH	32400
LLNVHVCVIYFVGWIVSLFQFCQIAIQQPTLDWVHCLPYILRVLLGFDLVYVT	66100
GSEDESEGSEDESSEDEEDEEKALDKKMEIQDQTNTNLVNLRKTIYLTIMSSI	43400
TPSSTATTAAPAATSAATPSLFSKPATTSAAPATATAAASTPSGNLFGAKAAA	47500
YILRLFRDYVFFQVDANGKRTFDLGHMMECLLRMDCGSDELICLTSSDEKNVI	49100
FLLDIFLLLVPSFPFSYTPFLVTSLFLVLCDIDVFLRFIYVHIYLVTLICTFM	30400
MGLVYPCWLVFFGWFPSFLFLIFLSFIINFILVFSFLLFTFIPPLFSLLSVQF	37900
ASASPARAPAAEVPPPVEIHVGDRCEVDRATGVARGTVRFVGEAEMPPPRPGA	42400
GKPGGGEAKTGERKGEGRGGRGKGGPGGKKDGPPPGEGKGAVVASAASTSATP	34700
QCIFVLLVLLMRRHLAKMHLCLKQEIDWRELDDDRDTVTWVVAAVWQRFIDLK	61000

Sequence	transcriptional activation domain activity
SGSGAEGASGTEHRRRASTRGRGRGRGRGGRAGRGGRAKTNGEGAELAGEEAG	< 6570
LFSQLFFPREQAKGVLGWLVWILYMLEKVLFSFSKRRGFFIVCQLEFCVLILT	40300
MVHFLVTLPYFILQCLTWLLRFHFFLPCLTFLLCFHLFFGTSLLLSFSMFSWA	50300
CLVIRGRSRFQHGPFWLGSFGLLCNIVLLSWTLFSLVFFSFPFVKPIIPGKPF	76900
PTWGLVLRLGCGIVYIVIFLVYVGLGGVFPGRYTYWGLSADNAGIMVYVLLCV	60400
GKKRKSTGAKSREQPKAKRIAKAKTKTGAFGAGRKGATAGHAKGRAAAAGPKA	59000
SDSGSEGDSDSDRGRSRKRKKGKSTGKSKSKSKSKSRRNASGSDDESESGSGS	35300
HYRIRLIYFMHFVAFGFGLSSILVNLFLCRPLRKNWMTDVNGRCFNRDAFYYA	58600
KESTTPSGTIKEVEGGEKGEEGTVAKQNNGEKGLVKSAGRNFLVDERVLRQSF	40600
KFYVIYTLFMVVFFMVLTICYYTNGSYGRDALGLCNFKEWNGRLVSRVYMMYL	45000
QWCIYAMLAYVIGWTISFFFSHLFTCYPITVFIEPYYGNKCVKTVPMFIALLY	67700
SLADEKERGLLTGDDNRDEYLGRNLRGMIHEFRWQTLVLLKCCLLQPKMLFFS	58100
MIWRYVWYTLVLGCLFCCRPNYSLLVPNTIDLHRLWLGFRFQILFVAWGVYLV	58900
VLHESCGSPVFLLFSCFILLSLWRIVGRISLSILLVLRSLFCCYFPSLLFWLW	36900
MLHLAALSPLMLLVFLLFSLFFKFFATFIWLYIMAYILITTLIIVFRITLPAN	68500
RDESLRTKDKSVSRSRSRSRARDEETDDRRERSRSADRESRREGRGRSATPQG	34800
MYYLLLPLAYSLSHSVFFFFSVFLLRVLQYHGWWPFLLSSLCVFFLACVFVKG	27100
VAACLVNWDMKAAFVCVQSGNLKGVQALSALLGYVQIYYVQWLCAIVIAILYI	60000
EDLRAAMEEEEEVEENEAEEEWVDVMKKHRVQASRLELLASGVGTGRTTSPVD	15900
ESEDEGRDTTHDSDNEGDGHDANHGSENEGEGHDTTHDSKIEGAGRDAIRGSH	8090
MDEGFFFFCFSFLFLLSPPSSWYFVFSFFLPLNFPSCSLFFVITFFLFLFFFW	37900
WIVALAIIVSDYYGVVKGGVAYGLLASSNTSMAVFIFVWHLGGIWMITMLACM	65100
SPSRRRDRDYDYSRYRRRDDSRSRSPRRRADPKDQQEKEKEKVKVKPSRAAAT	16200
SLDHTSLWIRRSVLSFSIEQIKKVFFQLFSTWYIFIFQLPYFPEWLWKNKTYP	49100
MPMLLIIFPLLYFLYCIHNLFHIISHYYEVFNTFYIVILHLSFLFYLHFILFH	69500
